Results: patent US20210388087A1 (Chugai, published 2021)

B1: H183/L072 VH Y58K (antibody, name in Kabat numbering, V domains shown)
VH: QVQLVESGGGLVQPGRSLRLSCAASGFTFSNAWMHWVRQAPGKGLEWVAQIKDKGNAYAAKYAPSVKGRFTISRDDSKNSIYLQMNSLKTEDTAVYYCHYVHYASASTVLPAFGVDAWGQGTTVTVSS
VL: DIVMTQSPLSLPVTPGEPASISCQASQELVHMNRNTYLHWYQQKPGQAPRLLIYKVSNRFPGVPDRFSGSGSGTDFTLKISRVEAEDVGVYYCAQGTSVPFTFGQGTKLEIK
B2: H183/L072 VH Y58T (antibody, name in Kabat numbering, V domains shown)
VH: QVQLVESGGGLVQPGRSLRLSCAASGFTFSNAWMHWVRQAPGKGLEWVAQIKDKGNAYAATYAPSVKGRFTISRDDSKNSIYLQMNSLKTEDTAVYYCHYVHYASASTVLPAFGVDAWGQGTTVTVSS
VL: DIVMTQSPLSLPVTPGEPASISCQASQELVHMNRNTYLHWYQQKPGQAPRLLIYKVSNRFPGVPDRFSGSGSGTDFTLKISRVEAEDVGVYYCAQGTSVPFTFGQGTKLEIK
B3: H183/L072 VH Y58R (antibody, name in Kabat numbering, V domains shown)
VH: QVQLVESGGGLVQPGRSLRLSCAASGFTFSNAWMHWVRQAPGKGLEWVAQIKDKGNAYAARYAPSVKGRFTISRDDSKNSIYLQMNSLKTEDTAVYYCHYVHYASASTVLPAFGVDAWGQGTTVTVSS
VL: DIVMTQSPLSLPVTPGEPASISCQASQELVHMNRNTYLHWYQQKPGQAPRLLIYKVSNRFPGVPDRFSGSGSGTDFTLKISRVEAEDVGVYYCAQGTSVPFTFGQGTKLEIK
B4: H183/L072 VH Y58M (antibody, name in Kabat numbering, V domains shown)
VH: QVQLVESGGGLVQPGRSLRLSCAASGFTFSNAWMHWVRQAPGKGLEWVAQIKDKGNAYAAMYAPSVKGRFTISRDDSKNSIYLQMNSLKTEDTAVYYCHYVHYASASTVLPAFGVDAWGQGTTVTVSS
VL: DIVMTQSPLSLPVTPGEPASISCQASQELVHMNRNTYLHWYQQKPGQAPRLLIYKVSNRFPGVPDRFSGSGSGTDFTLKISRVEAEDVGVYYCAQGTSVPFTFGQGTKLEIK
B5: H183/L072 VH Y58V (antibody, name in Kabat numbering, V domains shown)
VH: QVQLVESGGGLVQPGRSLRLSCAASGFTFSNAWMHWVRQAPGKGLEWVAQIKDKGNAYAAVYAPSVKGRFTISRDDSKNSIYLQMNSLKTEDTAVYYCHYVHYASASTVLPAFGVDAWGQGTTVTVSS
VL: DIVMTQSPLSLPVTPGEPASISCQASQELVHMNRNTYLHWYQQKPGQAPRLLIYKVSNRFPGVPDRFSGSGSGTDFTLKISRVEAEDVGVYYCAQGTSVPFTFGQGTKLEIK
B6: H183/L072 VH Y58L (antibody, name in Kabat numbering, V domains shown)
VH: QVQLVESGGGLVQPGRSLRLSCAASGFTFSNAWMHWVRQAPGKGLEWVAQIKDKGNAYAALYAPSVKGRFTISRDDSKNSIYLQMNSLKTEDTAVYYCHYVHYASASTVLPAFGVDAWGQGTTVTVSS
VL: DIVMTQSPLSLPVTPGEPASISCQASQELVHMNRNTYLHWYQQKPGQAPRLLIYKVSNRFPGVPDRFSGSGSGTDFTLKISRVEAEDVGVYYCAQGTSVPFTFGQGTKLEIK
B7: H183/L072 VH Y58P (antibody, name in Kabat numbering, V domains shown)
VH: QVQLVESGGGLVQPGRSLRLSCAASGFTFSNAWMHWVRQAPGKGLEWVAQIKDKGNAYAAPYAPSVKGRFTISRDDSKNSIYLQMNSLKTEDTAVYYCHYVHYASASTVLPAFGVDAWGQGTTVTVSS
VL: DIVMTQSPLSLPVTPGEPASISCQASQELVHMNRNTYLHWYQQKPGQAPRLLIYKVSNRFPGVPDRFSGSGSGTDFTLKISRVEAEDVGVYYCAQGTSVPFTFGQGTKLEIK
B8: H183/L072 VH Y58S (antibody, name in Kabat numbering, V domains shown)
VH: QVQLVESGGGLVQPGRSLRLSCAASGFTFSNAWMHWVRQAPGKGLEWVAQIKDKGNAYAASYAPSVKGRFTISRDDSKNSIYLQMNSLKTEDTAVYYCHYVHYASASTVLPAFGVDAWGQGTTVTVSS
VL: DIVMTQSPLSLPVTPGEPASISCQASQELVHMNRNTYLHWYQQKPGQAPRLLIYKVSNRFPGVPDRFSGSGSGTDFTLKISRVEAEDVGVYYCAQGTSVPFTFGQGTKLEIK
B9: H183/L072 VH Y59E (antibody, name in Kabat numbering, V domains shown)
VH: QVQLVESGGGLVQPGRSLRLSCAASGFTFSNAWMHWVRQAPGKGLEWVAQIKDKGNAYAAYEAPSVKGRFTISRDDSKNSIYLQMNSLKTEDTAVYYCHYVHYASASTVLPAFGVDAWGQGTTVTVSS
VL: DIVMTQSPLSLPVTPGEPASISCQASQELVHMNRNTYLHWYQQKPGQAPRLLIYKVSNRFPGVPDRFSGSGSGTDFTLKISRVEAEDVGVYYCAQGTSVPFTFGQGTKLEIK
B10: H183/L072 VH Y58W (antibody, name in Kabat numbering, V domains shown)
VH: QVQLVESGGGLVQPGRSLRLSCAASGFTFSNAWMHWVRQAPGKGLEWVAQIKDKGNAYAAWYAPSVKGRFTISRDDSKNSIYLQMNSLKTEDTAVYYCHYVHYASASTVLPAFGVDAWGQGTTVTVSS
VL: DIVMTQSPLSLPVTPGEPASISCQASQELVHMNRNTYLHWYQQKPGQAPRLLIYKVSNRFPGVPDRFSGSGSGTDFTLKISRVEAEDVGVYYCAQGTSVPFTFGQGTKLEIK
B11: H183/L072 VH Y59D (antibody, name in Kabat numbering, V domains shown)
VH: QVQLVESGGGLVQPGRSLRLSCAASGFTFSNAWMHWVRQAPGKGLEWVAQIKDKGNAYAAYDAPSVKGRFTISRDDSKNSIYLQMNSLKTEDTAVYYCHYVHYASASTVLPAFGVDAWGQGTTVTVSS
VL: DIVMTQSPLSLPVTPGEPASISCQASQELVHMNRNTYLHWYQQKPGQAPRLLIYKVSNRFPGVPDRFSGSGSGTDFTLKISRVEAEDVGVYYCAQGTSVPFTFGQGTKLEIK
B12: H183/L072 VH Y59F (antibody, name in Kabat numbering, V domains shown)
VH: QVQLVESGGGLVQPGRSLRLSCAASGFTFSNAWMHWVRQAPGKGLEWVAQIKDKGNAYAAYFAPSVKGRFTISRDDSKNSIYLQMNSLKTEDTAVYYCHYVHYASASTVLPAFGVDAWGQGTTVTVSS
VL: DIVMTQSPLSLPVTPGEPASISCQASQELVHMNRNTYLHWYQQKPGQAPRLLIYKVSNRFPGVPDRFSGSGSGTDFTLKISRVEAEDVGVYYCAQGTSVPFTFGQGTKLEIK
B13: H183/L072 VH Y58Q (antibody, name in Kabat numbering, V domains shown)
VH: QVQLVESGGGLVQPGRSLRLSCAASGFTFSNAWMHWVRQAPGKGLEWVAQIKDKGNAYAAQYAPSVKGRFTISRDDSKNSIYLQMNSLKTEDTAVYYCHYVHYASASTVLPAFGVDAWGQGTTVTVSS
VL: DIVMTQSPLSLPVTPGEPASISCQASQELVHMNRNTYLHWYQQKPGQAPRLLIYKVSNRFPGVPDRFSGSGSGTDFTLKISRVEAEDVGVYYCAQGTSVPFTFGQGTKLEIK
B14: H183/L072 VH Y58N (antibody, name in Kabat numbering, V domains shown)
VH: QVQLVESGGGLVQPGRSLRLSCAASGFTFSNAWMHWVRQAPGKGLEWVAQIKDKGNAYAANYAPSVKGRFTISRDDSKNSIYLQMNSLKTEDTAVYYCHYVHYASASTVLPAFGVDAWGQGTTVTVSS
VL: DIVMTQSPLSLPVTPGEPASISCQASQELVHMNRNTYLHWYQQKPGQAPRLLIYKVSNRFPGVPDRFSGSGSGTDFTLKISRVEAEDVGVYYCAQGTSVPFTFGQGTKLEIK
B15: H183/L072 VH Y59A (antibody, name in Kabat numbering, V domains shown)
VH: QVQLVESGGGLVQPGRSLRLSCAASGFTFSNAWMHWVRQAPGKGLEWVAQIKDKGNAYAAYAAPSVKGRFTISRDDSKNSIYLQMNSLKTEDTAVYYCHYVHYASASTVLPAFGVDAWGQGTTVTVSS
VL: DIVMTQSPLSLPVTPGEPASISCQASQELVHMNRNTYLHWYQQKPGQAPRLLIYKVSNRFPGVPDRFSGSGSGTDFTLKISRVEAEDVGVYYCAQGTSVPFTFGQGTKLEIK

target: T1, Human CD137 ECD (human); assay: single mutant vs template dBBDu183H
T1 construct: also called 4-1BB
T1 sequence (chain, as listed by the source limits assumed): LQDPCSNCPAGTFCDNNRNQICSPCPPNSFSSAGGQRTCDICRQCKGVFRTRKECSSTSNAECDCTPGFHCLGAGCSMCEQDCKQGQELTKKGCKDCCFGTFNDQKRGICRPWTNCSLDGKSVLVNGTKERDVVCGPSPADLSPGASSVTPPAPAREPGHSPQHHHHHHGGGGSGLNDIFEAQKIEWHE

**Q.** B1 was tested. Which “fold change of affinity” value did it give?
**A.** 0.3 fold

**Q.** How did the “fold change of affinity” value turn out when B2 was run?
**A.** 0.3 fold

**Q.** For B3, which “fold change of affinity” value is on record?
**A.** 0.4 fold

**Q.** Which “fold change of affinity” value does the source give for B4 here?
**A.** 0.6 fold

**Q.** Which “fold change of affinity” value does the source give for B5 here?
**A.** 0.2 fold

**Q.** Which “fold change of affinity” value does the source give for B6 here?
**A.** 0.4 fold

**Q.** With B7 as the binder, how does the “fold change of affinity” value read?
**A.** 0.2 fold

**Q.** Which “fold change of affinity” value does the source give for B8 here?
**A.** 0.3 fold

**Q.** Which “fold change of affinity” value does the source give for B9 here?
**A.** 0.7 fold

**Q.** With B10 as the binder, how does the “fold change of affinity” value read?
**A.** 0.2 fold

**Q.** Which “fold change of affinity” value does the source give for B11 here?
**A.** 0.8 fold

**Q.** How did the “fold change of affinity” value turn out when B12 was run?
**A.** 1.5 fold

**Q.** Which “fold change of affinity” value does the source give for B13 here?
**A.** 0.4 fold

**Q.** B14 was tested. Which “fold change of affinity” value did it give?
**A.** 0.3 fold

**Q.** For B15, which “fold change of affinity” value is on record?
**A.** 0.7 fold
